Tests used:
[1] = target: erbB2 peptide (Homo sapiens) (UniProt P04626); settings: cited from earlier work
[2] = target: hGrb7-RA-PH domains (residues 103-341), hexa-histidine fusion (human, UniProt Q14451 103-341); experiment: ITC
Chain of hGrb7-RA-PH domains (residues 103-341), hexa-histidine fusion (Q14451 103-341): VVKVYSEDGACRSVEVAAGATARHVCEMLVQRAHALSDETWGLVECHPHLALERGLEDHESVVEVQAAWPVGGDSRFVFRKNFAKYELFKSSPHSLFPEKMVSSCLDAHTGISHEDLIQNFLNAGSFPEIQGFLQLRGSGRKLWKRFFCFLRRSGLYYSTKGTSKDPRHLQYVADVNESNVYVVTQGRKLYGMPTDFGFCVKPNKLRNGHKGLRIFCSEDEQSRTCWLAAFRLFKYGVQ

Chain of Grb7 SH2 (Q14451 428-530): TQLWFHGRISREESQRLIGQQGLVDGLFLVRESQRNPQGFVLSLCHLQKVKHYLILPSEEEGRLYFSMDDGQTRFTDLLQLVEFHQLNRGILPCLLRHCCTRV

| Kd [2] [nM] | Molecule | Kd [1] [nM] |
| --- | --- | --- |
| – | Grb7 SH2 (from UniProt Q14451) | 2280 |
| 2800 | human Grb7-SH2 domain (domain or fragment, UniProt Q14451 431-527, looked up) WFHGRISREESQRLIGQQGLVDGLFLVRESQRNPQGFVLSLCHLQKVKHYLILPSEEEGRLYFSMDDGQTRFTDLLQLVEFHQLNRGILPCLLRHCC | – |
